Article PMC6538526
pIC50: −log10 of the molar value. Like-named read-outs stand apart in the source and are kept apart here.

Key:
[1] = molecular target: GST-BRCA2 fragment B2-9 (amino acids 3189–3418) (UniProt P51587); assay: pull-down
[2] = molecular target: GST-BRCA2 fragment B2-9 (amino acids 3189–3418) (UniProt P51587); assay: pull-down; remark: listed apart in the source

Chain of UniProt P51587 (P51587 3189-3418): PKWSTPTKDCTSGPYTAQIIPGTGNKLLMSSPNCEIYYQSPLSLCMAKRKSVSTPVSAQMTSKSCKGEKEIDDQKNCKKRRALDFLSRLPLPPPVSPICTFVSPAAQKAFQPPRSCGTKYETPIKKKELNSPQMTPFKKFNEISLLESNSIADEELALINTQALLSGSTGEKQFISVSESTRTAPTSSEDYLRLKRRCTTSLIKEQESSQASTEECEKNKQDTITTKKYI

pIC50 [1]: 7.55
pIC50 [2]: 7.53
Substance: purified cyclin A (from UniProt P20248 1-432) (natural protein)
